Experimental data taken from publication PMC3971405, “Molecular basis for the fold organization and sarcomeric targeting of the muscle atrogin MuRF1” (Open Biology, 2014).

B1: MuRF1^CC (coiled-coil-prone segment of human MuRF1, residues 214-271) (domain or fragment)
chain: GAMDTLYAILDEKKSELLQRITQEQEKKLSFIEALIQQYQEQLDKSTKLVETAIQSLDEPG
notes: MuRF1 (E3 ubiquitin ligase, TRIM family), human, UniProtKB Q969Q1, residues 214-271 (D214 to G271); Cloned into pETM-11 (His6-tag and TEV site N-terminal); also called CC^214-271; MuRF1 CC segment; not shown: His6, N-terminal, cleaved
B2: MuRF1^B2|CC|COS (B2 box, helix H1 and COS-box of MuRF1, residues 114-327, C298S) (domain or fragment)
chain: LQKGSHPMCKEHEDEKINIYCLTCEVPTCSMCKVFGIHKACEVAPLQSVFQGQKTELNNCISMLVAGNDRVQTIITQLEDSRRVTKENSHQVKEELSQKFDTLYAILDEKKSELLQRITQEQEKKLSFIEALIQQYQEQLDKSTKLVETAIQSLDEPGGATFLLTAKQLIKSIVEASKGSQLGKTEQGFENMDFFTLDLEHIADALRAIDFGTD

Assays:
[1] = molecular target: the molecule itself; experiment: SEC-MALS; SEC-MALLS, Superdex 75 10/300 GL, 20 mM Tris pH 8.0, 50 mM NaCl; 1 ml injected at 1.5 mg/ml
[2] = molecular target: the molecule itself; experiment: crystal structure; crystals grown at 20°C in 35% MPD, 0.1 M sodium acetate pH 4.5, 20% glycerol, 20 mM NaF; four chains in the asymmetric unit; 2.1 Å
[3] = molecular target: the molecule itself; experiment: SEC-MALS; SEC-MALLS, Superdex 200 10/300, 20 mM Tris pH 8.0, 100 mM NaCl; injected at 0.7 mg/ml

| Protein | stoichiometry N [1] | stoichiometry N [2] | stoichiometry N [3] |
| --- | --- | --- | --- |
| B1 | ~2 | 4 |  |
| B2 |  |  | 2 |
